Experimental data reported in PMC3039075 (Nitric oxide : biology and chemistry / official journal of …, 2010).

Molecular target: the molecule itself
Assay: non-reducing SDS-PAGE and Western blot

B1: matrix metalloproteinase-9 (MMP-9) (enzyme)
chain: not shown
stoichiometry N: 2
